Data as given in patent US20230227561A1 (REGENTS OF THE UNIVERSITY OF MINNESOTA, published 2023).
Values belong to the binder of their own block, whether it stands above or below them.

Experiments:
[1] = target: T1, B7-H3 on canine osteosarcoma OSCA78 cells (canine); assay: flow cytometry on OSCA78 cells, 400 nM, experiment 2
T1 construct: whole, on cells

[2] = target: T1, B7-H3 on canine osteosarcoma OSCA78 …; assay: flow cytometry on OSCA78 cells, 80 nM, experiment 2
[3] = target: T1, B7-H3 on canine osteosarcoma OSCA78 …; assay: flow cytometry on OSCA78 cells, 16 nM, experiment 2
[4] = target: T1, B7-H3 on canine osteosarcoma OSCA78 …; assay: flow cytometry on OSCA78 cells, 400 nM, experiment 1
[5] = target: T1, B7-H3 on canine osteosarcoma OSCA78 …; assay: flow cytometry on OSCA78 cells, 80 nM, experiment 1
[6] = target: T1, B7-H3 on canine osteosarcoma OSCA78 …; assay: flow cytometry on OSCA78 cells, 2000 nM, experiment 1
[7] = target: T2, canine CD16A on dog peripheral blood leukocytes / PBMC (canine, UniProt E2RP87 1-249); assay: flow cytometry on dog peripheral blood leukocytes (FIG. 4A)
T2 construct: Native protein on primary dog cells of various breeds
T2 sequence: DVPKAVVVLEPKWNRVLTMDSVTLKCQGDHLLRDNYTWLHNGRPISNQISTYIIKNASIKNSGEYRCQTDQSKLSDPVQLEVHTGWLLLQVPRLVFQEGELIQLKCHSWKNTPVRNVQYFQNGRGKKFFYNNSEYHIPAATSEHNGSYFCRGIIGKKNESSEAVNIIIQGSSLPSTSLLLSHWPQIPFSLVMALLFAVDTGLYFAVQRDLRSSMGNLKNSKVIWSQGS
Excerpt: Flow cytometry was used to examine the expression patterns of CD16A and CD64 by dog peripheral blood leukocytes. The general leukocyte populations of polymorphonuclear cells (PMNs), monocytes, and lymphocytes were identified based on their characteristic forward and side light-scattering and by their expression of well characterized markers, including CD4 (neutrophils and lymphocyte), CD14 (monocytes), and CD5 (T cells) (FIG. 4A). The anti-canine CD16A clone 4A5 stained a subset of monocytes and lymphocytes, and for some dogs it marginally stained PMNs and/or a small subset of cells in this population (FIG. 4A). This staining pattern was consistent for all the anti-canine CD16 mAbs generated, which had distinct complementarity-determining region nucleotide sequences from 4A5. […]
For cell staining, nonspecific antibody binding sites were blocked for 30 min using 25% canine serum and 25% FBS in PBS buffer (without Ca⁺² and Mg⁺²) (Lonza Group AG, Basel, Switzerland) prior to their staining with antibodies. All cell staining was analyzed on a FACSCelesta instruments (BD Biosciences, Franklin Lakes, N.J.), as previously described (Snyder et al., Vet Immunol Immunopathol 231:110162, 2021). Briefly, for controls, fluorescence minus one was used as well as appropriate isotype-matched antibodies. […]

[8] = target: T3, recombinant intact canine CD64 with an N-terminus HA-tag, expressed on NK-92 cells (canine); assay: flow cytometry on NK-92 cCD16A and NK-92 cCD64 cells (FIG. 3A)
T3 construct: also called NK-92 canine CD64 cells; NK-92 cCD64; not shown: N-terminal HA tag from the pDisplay cassette
T3 chain: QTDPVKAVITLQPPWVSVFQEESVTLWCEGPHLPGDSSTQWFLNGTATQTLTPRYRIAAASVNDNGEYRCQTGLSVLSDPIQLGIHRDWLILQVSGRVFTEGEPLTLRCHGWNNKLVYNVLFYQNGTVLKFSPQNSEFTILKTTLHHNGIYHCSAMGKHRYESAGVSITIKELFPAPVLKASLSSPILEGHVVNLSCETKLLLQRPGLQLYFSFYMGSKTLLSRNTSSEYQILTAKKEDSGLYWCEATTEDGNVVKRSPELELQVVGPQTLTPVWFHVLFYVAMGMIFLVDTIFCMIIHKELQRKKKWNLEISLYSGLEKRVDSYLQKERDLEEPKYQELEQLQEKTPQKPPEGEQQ

[9] = target: T2, canine CD16A on dog peripheral blood …; assay: flow cytometry, FITC protein at 400 nM, dog PBMC treated with IL-15 for 6 days
Protocol: (§1) To test the binding of the anti-CD16 domain, binding was evaluated on canine peripheral blood mononuclear cells (PBMC) that contained canine NK cells, T cells, B cells, and monocytes (Table 2). A single batch of 1615B7H3 TriKE (SEQ ID NO:56) was directly labeled with FITC fluorochrome and tested. The binding of the anti-CD16 fragment alone (anti-CD16-FITC) was tested as a positive control. Binding of an anti-B7H3 fragment alone (antiB7H3-FITC) was tested as a negative control.

[10] = target: T2, canine CD16A on dog peripheral blood …; assay: flow cytometry, FITC protein at 400 nM, PBMC of dog Never
Protocol: as §1

[11] = target: T2, canine CD16A on dog peripheral blood …; assay: flow cytometry, FITC protein at 2000 nM, PBMC of dog Never
Protocol: as §1

[12] = target: T2, canine CD16A on dog peripheral blood …; assay: flow cytometry, FITC protein at 80 nM, PBMC of dog Never
Protocol: as §1

[13] = target: T2, canine CD16A on dog peripheral blood …; assay: flow cytometry, FITC protein at 400 nM, PBMC of dog Maverick
Protocol: as §1

[14] = target: T2, canine CD16A on dog peripheral blood …; assay: flow cytometry, FITC protein at 80 nM, PBMC of dog Maverick
Protocol: as §1

[15] = target: T2, canine CD16A on dog peripheral blood …; assay: flow cytometry, FITC protein at 80 nM, dog PBMC treated with IL-15 for 6 days
Protocol: as §1

[16] = target: T2, canine CD16A on dog peripheral blood …; assay: flow cytometry, FITC protein at 2000 nM, PBMC of dog Maverick
Protocol: as §1

[17] = target: T2, canine CD16A on dog peripheral blood …; assay: flow cytometry, FITC protein at 2000 nM, dog PBMC treated with IL-15 for 6 days
Protocol: as §1

binding (flow cytometry read-out, unit not given) [1]: 93.7
binding (flow cytometry read-out, unit not given) [2]: 42.1
binding (flow cytometry read-out, unit not given) [3]: 2.8
binding (flow cytometry read-out, unit not given) [4]: 98.8
binding (flow cytometry read-out, unit not given) [5]: 64
binding (flow cytometry read-out, unit not given) [6]: 99.8
B1: anti-B7H3 antibody fragment alone (VHH)
VHH: QVQLVESGGGLVQPGGSLRLSCAASGFTFSSYWMYWVRQTPGKGLEWVSTINRDGSATWYADSVKGRFTISRDNAKNTGYLQMNSLKPDDTAVYYCVSDPDNYSSDEMVPYWGQGTQVTVSS
modifications: FITC-labelled in the PBMC assay (sites not given)
notes: The kind VHH is inferred from the single variable domain and the label 1615CAMB7H3; also called antiB7H3-FITC; anti-B7H3 fragment

binding result [7]: binds
binding result [8]: no binding
B2: anti-canine CD16A mAb (clone 4A5) (antibody, IgG1)
VH: EVQLQQSGAELVRSGASVKLSCTASGFNIKDYYMHWVKQRPEQGLEWIGWLDPENGDTVYAPKFQGRATMTADTSSNTAYLHLSSLTSEDTAVYYCNALVYSLLGQDYWGQGTTLTVSSAKTTPPSVYPLAPGSAAQTNSMVTLGCLVKGYFPEPVTVTWNSGSLSSGVHTFPAVLQSDLYTLSSSVTVPSS
VL: QILLTQSPAIMSASPGEKVTMTCSASSSVGYMHWYQQKPGSSPKPWIYDTSDLASGFPARFSGSRSGTSYSLIISSMEAEDAATYYCHQRSFYPYTFGGGTKLEIKRADAAPTVSIFPPSSEQLTSGGASVVCFLNNFYPKDINVKWKIDGSERQNGVLNSWTDQDSKDSTYSMSSTLTLTK
notes: also called anti-CD16A mAb clone 4A5; anti-canine CD16 (clone 4A5)

binding (flow cytometry read-out, unit not given) [9]: 15.3
binding (flow cytometry read-out, unit not given) [10]: 8.8
binding (flow cytometry read-out, unit not given) [11]: 23.8
binding (flow cytometry read-out, unit not given) [12]: 3.7
binding (flow cytometry read-out, unit not given) [13]: 26.5
binding (flow cytometry read-out, unit not given) [14]: 10.1
binding (flow cytometry read-out, unit not given) [15]: 6.2
binding (flow cytometry read-out, unit not given) [16]: 43.6
binding (flow cytometry read-out, unit not given) [17]: 35.8
B3: anti-canine CD16 antibody fragment alone (other)
VL: MEQILLTQSPAIMSASPGEKVTMTCSASSSVGYMHWYQQKPGSSPKPWIYDTSDLASGFPARFSGSRSGTSYSLIISSMEAEDAATYYCHQRSFYPYTFGGGTKLEIK
VH: EVQLQQSGAELVRSGASVKLSCTASGFNIKDYYMHWVKQRPEQGLEWIGWLDPENGDTVYAPKFQGRATMTADTSSNTAYLHLSSLTSEDTAVYYCNALVYSLLGQDYWGQGTTLTVSS
modifications: FITC-labelled in the PBMC assay (sites not given)
notes: also called anti-CD16; anti-CD16-FITC
